Data on 7 molecules can be found in patent US20140017764.

Data set [1] has as its system T1, HCV-P preferred substrate construct (DEMEECASHL).
T1 sequence: DEMEECASHL

The target of data set [2] is T2, TENLYFESGTRRW peptide substrate.
T2 chain: TENLYFESGTRRW

The target in data set [3] is T3, TENLYFHSGTRRW peptide substrate.
T3 chain: TENLYFHSGTRRW

The target of data set [4] is T4, Aga2 substrate fusion polypeptide with HCV-P counter selection sequence and TEV-P selection substrate ENLYFQS.
T4 chain: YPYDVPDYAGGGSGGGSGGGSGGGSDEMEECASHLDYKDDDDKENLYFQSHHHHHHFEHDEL

For data set [5], the target named is T5, human granzyme K preferred substrate construct (CGYGPKKKRKVGG).
T5 chain: CGYGPKKKRKVGG

The target of data set [6] is human AblTK preferred substrate construct.

Where a chain is given by its changes, count along the chain named.

Regarding hepatitis C protease (HCV-P), the “YESS two-color FACS (PE / FITC)” value in data set [1] is on record as “displayed relatively similar PE but low FITC signals by FACS compared to the controls lacking proteases”.

B1: TEV-PE10, purified (protein)
chain: HHHHHHSLFKGPRDYNPISSTICHLTNESDGHTTSLYGIGFGPFIITNKHLFRRNNGTLLVQSLHGVFKVKNTTTLQQHLIDGRDMIIIRMPKDFPPFPQKLKFREPQREERICLVTTNFQTKRMSSMVSDTSCTFPSSDGIFWKHWIQTKRGQCGSPLVSTRDGFIVGIHSASNFANTNKYFTSVPKNFMELLTNQEAQQWVSGWRLNADSVLWGGHKVFIPKPEEPFQPVKEATQLMN
Take B1: in data set [2], the KM stood at 12.8 µM, the “fold higher kcat/KM on TENLYFESGTRRW versus […]” value is 13-fold higher kcat/KM value, the kcat came to 0.0255 s⁻¹ and the kcat/KM is 2060 M⁻¹ s⁻¹. Also, in data set [2], the “reversal of substrate specificity compared to TEV-P” value was 5000-fold reversal of substrate specificity compared to TEV-P.

B2: TEV-PH21, purified (protein)
chain: B1 chain with T21A, R124S, T150A, R152P, S157C, S172T, S174A, K181N, I222M
For the molecule B2, in data set [3], the KM came to 250 µM, the fold higher kcat/KM on TENLYFHSGTRRW versus […] was found to be 7 fold, the kcat was 0.0375 s⁻¹ and the kcat/KM is 150 M⁻¹ s⁻¹. In data set [3], the “reversal of substrate specificity compared to TEV-P” value was 1100-fold reversal of substrate specificity compared to TEV-P.

B3: wild-type TEV protease (TEV-P), purified (protein)
chain: B1 chain with R124S, R152D, A177T, K181N, I222M
As for B3, in data set [3], the KM came to 640 µM, the “fold by which kcat/KM on […] exceeds kcat/KM on TENLYFHSGTRRW” value is 150-fold, the kcat stood at 0.00493 s⁻¹ and the kcat/KM turned out to be 7.55 M⁻¹ s⁻¹. In data set [2], the KM amounted to 1930 µM, the “fold by which kcat/KM on […] exceeds kcat/KM on TENLYFESGTRRW” value is 375-fold, the kcat was determined as 0.00609 s⁻¹ and the kcat/KM was found to be 3.14 M⁻¹ s⁻¹.

B4: TEV-P anchored with a C-terminal ER retention sequence, expressed in the yeast ER (protein)
chain: SLFKGPRDYNPISSTICHLTNESDGHTTSLYGIGFGPFIITNKHLFRRNNGTLLVQSLHGVFKVKNTTTLQQHLIDGRDMIIIRMPKDFPPFPQKLKFREPQREERICLVTTNFQTKSMSSMVSDTSCTFPSSDGIFWKHWIQTKDGQCGSPLVSTRDGFIVGIHSASNFTNTNNYFTSVPKNFMELLTNQEAQQWVSGWRLNADSVLWGGHKVFMPKPEEPFQPVKEATQLMNFEHDEL
For the molecule B4, in data set [4], the “YESS two-color FACS (anti-FLAG-PE / anti-6xHis-FITC)” value is given as “high PE but low FITC fluorescence”.

B5: human granzyme K protease (GrK) (protein)
chain: IIGGKEVSPHSRPFMASIQYGGHHVCGGVLIDPQWVLTAAHCQYRFTKGQSPTVVLGAHSLSKNEASKQTLEIKKFIPFSRVTSDPQSNDIMLVKLQTAAKLNKHVKMLHIRSKTSLRSGTKCKVTGWGATDPDSLRPSDTLREVTVTVLSRKLCNSQSYYNGDPFITKDMVCAGDAKGQKDSCKGDSGGPLICKGVFHAIVSGGHECGVATKPGIYTLLTKKYQTWIKSNLVPPHTN
Turning to B5, the “YESS two-color FACS (PE / FITC)” value in data set [5] is “displayed relatively similar PE but low FITC signals by FACS compared to the controls lacking proteases”.

B6: human Abelson tyrosine kinase (AblTK) (protein)
chain: SPNYDKWEMERTDITMKHKLGGGQYGEVYEGVWKKYSLTVAVKTLKEDTMEVEEFLKEAAVMKEIKHPNLVQLLGVCTREPPFYIITEFMTYGNLLDYLRECNRQEVNAVVLLYMATQISSAMEYLEKKNFIHRDLAARNCLVGENHLVKVADFGLSRLMTGDTYTAHAGAKFPIKWTAPESLAYNKFSIKSDVWAFGVLLWEIATYGMSPYPGIDLSQVYELLEKDYRMERPEGCPEKVYELMRACWQWNPSDRPSFAEIHQAFETMFQESSISDEVEKELGK
For B6, the “YESS FACS (Alexa Fluor 647 anti-phosphotyrosine / anti-6xHis-FITC)” value in data set [6] is reported as “displayed relatively similar FITC but high Alexa Fluor@647 signals by FACS”.

For orientation: KM means the substrate concentration at which the rate is half of its maximum. Usually kcat stands for the number of substrate molecules converted per active site and unit of time at saturation. The term kcat/KM denotes the turnover number divided by the Michaelis constant.
